Where “and” joins values, the source holds several entries; their conditions need not be identical. Identical values can stand only once. No end group written: not given here. *: point of attachment. 5FAM = O=C1OC2(c3ccc(O)cc3Oc3cc(O)ccc32)c2ccc(C(=O)*)cc21; TQ2 = quencher; TQ3 = quencher
Legend:
Assay type in all cases: biochemical
[1] = biological target: T1, MMP14 in the MDA-MB-231-derived extracellular vesicles (Homo sapiens, UniProt P50281); assay: Digital detection of MDA-MB-231-derived extracellular vesicles through MMP14 activity in liquid droplets
T1 construct: in terms of intact MMP14 with a molecular weight of 70 kDa
Procedure: The concentration of the solution is 5 μg/mL.
Liquid droplets were prepared by a pumping method of an SPG emulsification membrane through use of the reaction solution for forming liquid droplets prepared in the foregoing. A dispersed phase and a continuous phase are shown below.
An SPG pumping connector (pore diameter: 10 μm, pore diameter: 5 μm, manufactured by SPG Technology Co., Ltd.) was used as the SPG emulsification membrane, and the number of times of pumping reciprocations was set to 10. Thus, liquid droplets each having a diameter of from about 1 μm to about 10 μm were obtained.
The emulsified liquid prepared in the foregoing were subjected to a reaction through incubation at 37° C. to promote the generation of fluorescence.
Next, the images acquired with an SPG pumping connector with a pore diameter of 10 μm were analyzed in the same manner as in Example 19. The above-mentioned fluorescence microscope images after 4 hours of reaction were subjected to predetermined image processing to provide a particle diameter distribution of the liquid droplets shown in FIG. 67, and obtain a histogram representing the number of liquid droplets each showing a fluorescence intensity included in each fraction of fluorescence intensity obtained by dividing fluorescence intensities into intervals of a constant value in each particle diameter range.
Further, when the concentration of the extracellular vesicles having MMP14 activity was calculated through use of the above-mentioned equation (1) from the total number of liquid droplets in each particle diameter range and the number of positive liquid droplets identified from the histogram, the concentration was able to be estimated as described below.

[2] = biological target: T1, MMP14 in the MDA-MB-231-derived extracellular vesicles; assay: Digital detection through MMP14 activity of MDA-MB-231-derived extracellular vesicles captured on anti-CD9/CD63/CD81 antibody-immobilized particles; conditions: for Expected value λ / Number of positives / Positive ratio: 5 h; for Expected value λ (MMP14) / Number of positives (MMP14): Example 33, 30° C., 4 h
Procedure: The concentration of the solution is 10 μg/mL.
For detection of MMP14 activity, 1 mM Custom #2 was diluted with the buffer (4) to prepare a MMP14 detection solution containing 10 μM Custom #2.
The number of the particles was increased 4-fold, and a reaction was allowed to proceed. However, the number and concentration of the particles used to fill the wells are finally the same as those in other Examples.
The concentration of the solution is 10 μg/mL. The solution was subjected to 3-fold serial dilution to prepare standard samples with seven concentrations.
For detection of MMP14 activity, 1 mM Custom #2 and a 100 µM resorufin β-D-galactopyranoside solution were diluted with the buffer (4) to prepare a MMP14 and CD9/CD63/CD81 cocktail detection solution (1) containing 10 μM Custom #2 and 5 μM resorufin β-D-galactopyranoside. In addition, the solution was diluted 2-fold with the buffer (4) to prepare a detection solution (2). Nonfluorescent resorufin β-D-galactopyranoside is degraded by β-galactosidase to produce fluorescent resorufin. In this case, the maximum wavelengths of excitation and fluorescence of resorufin are 570 nm and 585 nm, respectively.
In addition, an antibody-immobilized particle solution was prepared and stored at 4° C. until use, in the same manner as in Example 28 except that Magnosphere MS300/Carboxyl (manufactured by JSR Corporation) (hereinafter abbreviated as “MS300C”) was used as magnetic particles.
For detection of MMP14 activity, 1 mM Custom #2 was diluted with the buffer (4) to prepare a MMP14 detection solution containing 5 μM Custom #2. In addition, 1 mM Custom #2T was diluted with the buffer (4) to prepare a MMP14 detection solution containing 2.5 μM Custom #2T.
An antibody-immobilized particle solution was prepared and stored at 4° C. until use, in the same manner as in Example 28 except that: MS300C was used as magnetic particles; and blocking treatment was performed at 4° C. or room temperature through use of Blockmaster CE210 or CE510 (manufactured by Medical & Biological Laboratories Co., Ltd.) instead of Bead Blocking Buffer (manufactured by Quanterix Corporation).
For detection of MMP14 activity, 1 mM Custom #2 and 1 mM Custom #2T were diluted with the buffer (4) to prepare a MMP14 detection solution containing 5 μM Custom #2 and 2.5 μM Custom #2T serving as the reporter molecules in the same system. […]

[3] = biological target: T1, MMP14 in the MDA-MB-231-derived extracellular vesicles; assay: Digital detection through MMP14 activity of MDA-MB-231-derived extracellular vesicles captured on Tim4-immobilized magnetic particles; conditions: Table 56, MB231 Present, 24 hours at 23° C.
[4] = Example 32, 4 h, droplet diameter 3-4 μm
[5] = Example 32, 4 h, droplet diameter 4-5 μm
[6] = Example 32, 4 h, droplet diameter 5-6 μm
[7] = Example 32, 4 h, droplet diameter 6-7 μm
[8] = Example 32, 4 h, droplet diameter 7-8 μm
[9] = Example 32, 4 h, droplet diameter <3 μm
[10] = Example 32, 4 h, droplet diameter >8 μm
[11] = Particle MS300C, MB231 Absent, 24 hours of reaction
[12] = Particle MS300C, MB231 Present, 24 hours of reaction
[13] = Particle Simoa, MB231 Absent, 24 hours of reaction
[14] = Particle Simoa, MB231 Present, 24 hours of reaction
[15] = Example 28, 37° C., EV 0 (BG, free of extracellular vesicles)
[16] = Example 28, 37° C., EV 1 a.u. (sample 10 μg/mL)
[17] = Example 31, 4-fold number of particles, 37° C., EV 1 a.u., single image
[18] = Example 31, 37° C., EV 1 a.u., sum of the two images

In the case of “[5-FAM]GRIGFLRTAK(TQ2)[OH] (5FAM-GRIGFLRTAK(TQ2)-OH) [Custom #1]”, the Extracellular vesicle concentration ([1]; Example 32) is reported as 1.9×10^9 /μg of protein, the “Concentration (extracellular vesicles having MMP14 activity)” value [1, 4] is reported as 1.06e+10 mL⁻¹ and the “Expected value λ” value [1, 4] is reported as 0.217. The Number of positives [1, 4] was 15, the Positive ratio [1, 4] was 0.195 and the “Concentration (extracellular vesicles having MMP14 activity)” value [1, 5] was 9.05e+09 mL⁻¹. For the same substance, the “Expected value λ” value [1, 5] was 0.416, the Number of positives [1, 5] was 16 and the Positive ratio [1, 5] was 0.340. The “Concentration (extracellular vesicles having MMP14 activity)” value [1, 6] was 9.85e+09 mL⁻¹, the “Expected value λ” value [1, 6] was 0.816 and the Number of positives [1, 6] was 29. The Positive ratio [1, 6] was 0.558, the “Concentration (extracellular vesicles having MMP14 activity)” value [1, 7] was 9.03e+09 mL⁻¹ and the “Expected value λ” value [1, 7] was 1.293. For the same substance, the Number of positives [1, 7] was 37, the Positive ratio [1, 7] was 0.725 and the “Concentration (extracellular vesicles having MMP14 activity)” value [1, 8] was 9.01e+09 mL⁻¹. The “Expected value λ” value [1, 8] was 1.910, the Number of positives [1, 8] was 23 and the Positive ratio [1, 8] was 0.852. For the same substance, the “Concentration (extracellular vesicles having MMP14 activity)” value [1, 9] was 1.04e+10 mL⁻¹, the “Expected value λ” value [1, 9] was 0.047 and the Positive ratio [1, 9] was 0.046. The “Concentration (extracellular vesicles having MMP14 activity)” value [1, 10] was 8.68e+09 mL⁻¹, the “Expected value λ” value [1, 10] was 3.296 and the Number of positives [1, 10] was 26. For the same substance, the Positive ratio [1, 10] was 0.963, the Number of positives ([1]; Example 32, SPG pore 10 μm, EV 5 μg/mL, reporter 5 μM, 37° C., 4 h, droplet diameter <3 μm) was 8 and the “average of the extracellular vesicle concentrations” value ([1]; Example 32, all droplet diameter ranges, reaction solution 5.0 μg of protein/mL) was 9.5e+09 mL⁻¹.

With “TAMRA-GGPLGLAGGK(TQ3) ({TAMRA}-GGPLGLAGGK(TQ3)) [Custom #2T]” the Extracellular vesicle concentration [2, 11] was 0.01 ×10^5/μg of protein, the “Particle Expected value λ” value [2, 11] was 0.002 and the Extracellular vesicle concentration [2, 12] was 1.4687 ×10^5/μg of protein. For the same substance, the “Particle Expected value λ” value [2, 12] was 0.2937, the Extracellular vesicle concentration [2, 13] was 0.0098 ×10^5/μg of protein and the “Particle Expected value λ” value [2, 13] was 0.00196. For the same substance, the Extracellular vesicle concentration [2, 14] was 0.3874 ×10^5/μg of protein, the “Particle Expected value λ” value [2, 14] was 0.07748 and the “Particle Number of positives” value ([3]; Particle MS300C) was 1,460. The “Particle Number of positives” value ([3]; Particle Simoa) was 359.

With “[5-FAM]GGPLGLAGGK(TQ2)[OH] (5FAM-GGPLGLAGGK(TQ2)-OH) [Custom #2]” the Extracellular vesicle concentration ([2]; Example 28, 1 μg of protein, 5.0×10^5 particles) was 8.0×10^4 extracellular vesicles/μg of protein, the “Expected value λ” value [2, 15] was 0.000493 and the Number of positives [2, 15] was 1. For the same substance, the Positive ratio [2, 15] was 0.000493, the “Expected value λ” value [2, 16] was 0.1599 and the Number of positives [2, 16] was 338. For the same substance, the Positive ratio [2, 16] was 0.1478, the “expected value Δλ per particle (value obtained by subtracting BG)” value ([2]; Example 28, 5 h) was 0.1594 and the Extracellular vesicle concentration ([2]; Example 31, 0.5 μg of protein, 2.0×10^6 particles) was 1.8×10^5 extracellular vesicles/μg of protein. The “Expected value λ” value [2, 17] was 0.04458 and 0.04511, the Number of positives [2, 17] was 402 and 410 and the Positive ratio [2, 17] was 0.0436 and 0.04411. For the same substance, the “Expected value λ” value [2, 18] was 0.04484, the Number of positives [2, 18] was 812 and the Positive ratio [2, 18] was 0.04386. For the same substance, the “expected value Δλ per particle (value obtained by subtracting BG)” value ([2]; Example 31, 5 h, sum of the two images) was 0.04435, the “Expected value λ (MMP14)” value ([2]; EV 0 (BG)) was 0.00428 and the “Number of positives (MMP14)” value ([2]; EV 0 (BG)) was 9. The “Expected value λ (MMP14)” value ([2]; EV X1 (sample 10 μg/mL)) was 0.139, the “Number of positives (MMP14)” value ([2]; EV X1 (sample 10 μg/mL)) was 298 and the “Expected value λ (MMP14)” value ([2]; EV X1/3) was 0.0829. The “Number of positives (MMP14)” value ([2]; EV X1/3) was 218, the “Expected value λ (MMP14)” value ([2]; EV X1/9) was 0.0569 and the “Number of positives (MMP14)” value ([2]; EV X1/9) was 162. For the same substance, the “Expected value λ (MMP14)” value ([2]; EV X1/27) was 0.0315, the “Number of positives (MMP14)” value ([2]; EV X1/27) was 78 and the “Expected value λ (MMP14)” value ([2]; EV X1/81) was 0.0118. For the same substance, the “Number of positives (MMP14)” value ([2]; EV X1/81) was 19, the “Expected value λ (MMP14)” value ([2]; EV X1/243) was 0.0108 and the “Number of positives (MMP14)” value ([2]; EV X1/243) was 20. For the same substance, the “Expected value λ (MMP14)” value ([2]; EV X1/729) was 0.0120, the “Number of positives (MMP14)” value ([2]; EV X1/729) was 22 and the “extracellular vesicles detected with MMP14 present in wells (particles) containing extracellular vesicles detected with at least any one of CD9, CD63, and CD81” value ([2]; Example 33, concentration [a.u.] of x1, multiplex with resorufin β-D-galactopyranoside) was 99.7%. For the same substance, the Extracellular vesicle concentration [2, 11] was 0.0113 ×10^5/μg of protein, the “Particle Expected value λ” value [2, 11] was 0.00226 and the Extracellular vesicle concentration [2, 12] was 1.4495 ×10^5/μg of protein. For the same substance, the “Particle Expected value λ” value [2, 12] was 0.2899, the Extracellular vesicle concentration [2, 13] was 0.0061 ×10^5/μg of protein and the “Particle Expected value λ” value [2, 13] was 0.00122. For the same substance, the Extracellular vesicle concentration [2, 14] was 1.5232 ×10^5/μg of protein, the “Particle Expected value λ” value [2, 14] was 0.3046 and the “Particle Number of positives” value ([3]; Particle MS300C) was 1,288. For the same substance, the “Particle Number of positives” value ([3]; Particle Simoa) was 1,234.
